The target in data set [1] is T1, hSSB1 (Homo sapiens, UniProt Q9BQ15 Q9BQ15:1-211). As to the kind of experiment: SPR; LSA_In3E3 = 1. (In SPR one partner is held on a chip, and binding of the other changes the refractive index at the surface.)
For data set [2], the target named is THOC4 (ALYREF) (UniProt Q86V81 Q86V81:2-257). As to the kind of experiment: EMSA; 10 mM Tris pH 8.0, 100 mM NaCl, 1 mM EDTA, 37C. (A gel shift assay detects complexes by their altered migration in electrophoresis.)
The target in data set [3] is T1, hSSB1. Briefly: EMSA. The conditions noted are these: label: FAM. On the procedure: (§1) FIG. 15 is a graphic representation of hSSB1 EMSAs showing increasing concentrations of hSSB1 protein vs. 5 nM of FAM-labeled LSA_In3E3 sequence in either phosphorothioate (PS) or phosphodiester (PD) chemistry, or negative control sequence (Neg_C) in phosphorothioate chemistry. Graphs represent quantification of at least triplicate experiments, expressed as the fraction of oligomer compound bound to the protein. Purified protein was incubated with 5 nM of labeled oligomer compound for 15 min at 37° C. in a buffer consisting of 10 mM Tris-HCl (pH7.5), 100 mM KCl, 0.01% IGEPAL, 1 mM EDTA and 50 ng/μL BSA.
(§2) FAM-labeled non-targeting PS compound, LSA_In3E3, PD compounds, DNA_In3E3 and RNA_In3E3, and a negative control oligomer compound, NEGC, were incubated separately with purified mouse SSB1 (mSSB1), hSSB1 and human SSB2 (hSSB2) proteins.

Data set [4] has as its target T2, mSSB1 (Mus musculus, UniProt Q8R2Y9 Q8R2Y9:1-212). As to the kind of experiment: EMSA. Particulars: label: FAM. The method, then: as §2
Data set [5] concerns the target T2, mSSB1. As to the kind of experiment: EMSA; 1 mM EDTA, 37C. Particulars: label: FAM. On the procedure:
as §2

Data set [6] deals with T1, hSSB1. As to the kind of experiment: EMSA; 10 mM Tris, 1 mM EDTA, 37C; Table 7 gives 3 nM. Particulars: label: FAM. The method, then: as §1, §2
Data set [7] addresses hSSB2 (Homo sapiens, UniProt Q96AH0 Q96AH0:1-204). As to the kind of experiment: EMSA; Tris pH 7.5, 100 mM KCl, 1 mM EDTA, 37C; single EMSA. Particulars: label: FAM. On the procedure: FIG. 16 is a graphic representation of a single EMSA showing increasing concentrations of hSSB2 protein vs. 5 nM of FAM-labeled LSA_In3E3 sequence or negative control sequence (Neg_C) in phosphorothioate chemistry. Graphs represent the fraction of oligo bound to the protein. Purified protein was incubated with 5 nM of labeled oligo for 15 min at 37° C. in a buffer consisting of 10 mM Tris-HCl (pH7.5), 100 mM KCl, 0.01% IGEPAL, 1 mM EDTA and 50 ng/μL BSA.
as §2

Data set [8] deals with T1, hSSB1. Briefly: EMSA; 10 mM Tris, 1 mM EDTA, 37C; Table 7 gives 9 nM. Particulars: label: FAM. On the procedure: as §1, §2

T2 sequence (Q8R2Y9 whole entry, one chain of several): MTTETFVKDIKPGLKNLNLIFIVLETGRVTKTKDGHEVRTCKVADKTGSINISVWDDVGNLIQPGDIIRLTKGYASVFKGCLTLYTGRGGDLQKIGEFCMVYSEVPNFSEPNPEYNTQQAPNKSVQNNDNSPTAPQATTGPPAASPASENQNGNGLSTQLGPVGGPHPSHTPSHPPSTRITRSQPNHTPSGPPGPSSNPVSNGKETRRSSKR
T1 sequence (Q9BQ15 whole entry, one chain of several): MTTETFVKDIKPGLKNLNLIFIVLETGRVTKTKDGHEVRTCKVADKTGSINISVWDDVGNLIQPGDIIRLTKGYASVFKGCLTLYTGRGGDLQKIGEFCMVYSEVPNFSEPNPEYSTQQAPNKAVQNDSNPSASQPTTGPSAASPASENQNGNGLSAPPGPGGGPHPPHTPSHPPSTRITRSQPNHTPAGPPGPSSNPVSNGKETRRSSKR
hSSB2, sequence (Q96AH0 whole entry, one chain of several): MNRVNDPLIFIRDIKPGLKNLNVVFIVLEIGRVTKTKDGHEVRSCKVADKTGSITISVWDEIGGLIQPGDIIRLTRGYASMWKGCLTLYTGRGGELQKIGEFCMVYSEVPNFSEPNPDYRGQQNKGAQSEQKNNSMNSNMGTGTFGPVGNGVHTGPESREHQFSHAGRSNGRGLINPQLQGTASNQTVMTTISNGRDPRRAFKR

Broadly, the Kd is the concentration at which binding is half-saturated. The low end stands for higher affinity, the high end for lower affinity. As for CGCGUCACUCGCACUCGCCU (ssRNA, 2'-OMe all, PS all) [LSA_In3E3_CT5], the binding signal in data set [1] stood at 0.46 normalized Rmax. In data set [2], binding was characterised by a dissociation constant (Kd) of 125 nM.
The molecule CCAGUGAGCCGGACUUGCCU (ssRNA, phosphodiester, unmodified ribose) [RNA_In3E3] returned a Kd in data set [3] of 137 nM.
In turn, GAGAACCGACUCGGGUAGAG (ssRNA, 2'-OMe all, PS all) [cdca3_L_ATG-3] yielded a binding signal in data set [1] of 1.09 normalized Rmax. Moreover, in data set [2], the Kd was found to be 58 nM.
CACGUACCUUAGUGCCUCAC (ssRNA, 2'-OMe all, PS all) [Open_L_1] gave a binding signal in data set [1] of 0.8 normalized Rmax. Further, the Kd in data set [2] came to 104 nM.
As to CCAGUGAGCCGGACUUGCCU (ssDNA, deoxyuridine in place of T, phosphodiester) [DNA_In3E3], the Kd in data set [4] stood at 13.1 nM; in data set [3] it was 13.5 nM.
In turn, CUCUUGGCUGAGCCCAUCUC (ssRNA, 2'-OMe all, PS all) [cdca3_A_ATG-3] yielded a binding signal in data set [1] of 1.3 normalized Rmax. In data set [2], this molecule yielded a Kd of 134 nM.
With CCAGUGAGCCGGACUUGCCU (ssRNA, 2'-OMe all, PS all) [LSA_In3E3], the Kd in data set [5] is 4.13 nM; in data set [2] it was 81 nM; in data set [6], 3.29 nM. In data set [7], the binding result is listed as “binds”.
Molecule CUGAAGCGUACCCUUUGGUG (ssRNA, 2'-OMe all, PS all) [ASO_E3E4] gave a binding signal in data set [1] of 0.75 normalized Rmax. Besides, binding in data set [2] was characterised by a dissociation constant (Kd) of 70 nM.
GUGCAUGGAAUCACGGAGUG (ssRNA, 2'-OMe all, PS all) [Open_A_1]: in data set [2], the Kd was determined as 52 nM.
CUCAUUCCUACCGACACCCC (ssRNA, 2'-OMe all, PS all) [Neg_C]: the Kd in data set [8] turned out to be 10 nM; in data set [2], 150 nM; in data set [4], 15.4 nM.

These data come from US20200230168, “NUCLEIC ACID OLIGOMERS AND USES THEREFOR” (Queensland University of Technology, published 2020).
